Results on one molecule are retold here after patent US20030096288A1 (Human Genome Sciences, published 2003).

For this assay, the target named is T1, RAIDD (construct or tag not stated for the experiment) (human, UniProt P78560 1-199).
T1 construct: a tag may have been present; also called RAIDD expression construct
As to the kind of experiment: in vitro binding to GST fusion protein on glutathione beads. The procedure: In Vitro Binding Assay. […] The tagged proteins were expressed, purified, and immobilized into Ni²⁺ beads according to standard methodology. The GST-Fas and TNFR-1 fusion proteins were prepared as described previously (Chinnaiyan, A. M. et al., Cell 81:505-12 (1995)). ³⁵S-labeled proteins were obtained by in vitro transcription/translation using the TNT T7-coupled reticulocyte lysate system (Promega).
Beads were washed, boiled in SDS sample buffer, eluted proteins resolved by SDS-PAGE and visualized following autoradiography.

T1 sequence (P78560 whole entry): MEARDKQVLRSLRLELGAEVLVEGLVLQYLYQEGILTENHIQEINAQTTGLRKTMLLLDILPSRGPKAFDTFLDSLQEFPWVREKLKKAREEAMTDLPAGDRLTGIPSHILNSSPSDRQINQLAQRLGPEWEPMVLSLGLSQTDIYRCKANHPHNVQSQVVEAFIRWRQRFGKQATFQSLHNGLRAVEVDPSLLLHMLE

B1: GST-Fas fusion protein (receptor, UniProt P25445 191-335, looked up)
chain: KRKEVQKTCRKHRKENQGSHESPTLNPETVAINLSDVDLSKYITTIAGVMTLSQVKGFVRKNGVNEAKIDEIKNDNVQDTAEQKVQLLRNWHQLHGKKEAYDTLIKDLKKANLCTLAEKIQTIILKDITSDSENSNFRNEIQSLV
notes: not shown: GST
In the case of B1, the binding result was “no binding”.
